The text below walks through data of patent US20230212319A1, “NOVEL ANTIGEN BINDING DOMAINS AND SYNTHETIC ANTIGEN RECEPTORS INCORPORATING THE SAME” (University of Southern California, priority 2020, published 2023).

One test relates to RAJI cells. In words: JNG assay, co-culture with RAJI cells. The note with it: JNG cells expressing construct, co-culture with Raji. It counts as cell-based. In short, it runs like this:
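Jurkat NFAT-GFP (JNG) cells stably transduced with SARs by lentivirus, with drug selection where the construct carried a resistance gene, then co-cultured with target cells at E:T ~1:2 for ~4–18 h. % GFP-positive cells measured by FACS against parental JNG; +/- to 5+ correspond to ~5–50% GFP-positive.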

Another test has as its system LNCaP cells. In words: JNG assay, co-culture with LNCaP cells. It counts as cell-based. The note with it: for NFAT-GFP ASSAY: LNCaP: co-culture with LNCaP; for NFAT-GFP ASSAY: LNCaP with PSMA-USC76-chVH-G4S-ULBP2-S3: LNCaP in presence of SAR adaptor PSMA-USC76-chVH-G4S-ULBP2-S3. The gist of the method: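 Read-out: % GFP-positive cells by flow cytometry after ~4 to 18 h coculture of SAR-transduced JNG cells with targets (E:T about 1:2). Scores reflect GFP induction above parental JNG controls: +/- ≈5%, + ≈10%, up to 5+ ≈50%.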

B1: 22058 (protein)
chain: MALPVTALLLPLALLLHAARPQLQLQESGPGLVKPSETLSLTCTVSGDSISSGDYYWGWIRQPPGKGLEWIGHIYYSGVTYYNPSLKSRVTISVDTSRNQFSLKLSSVTAADTAVYYCTREDSSNWRSRGQGTLVTVSSLEDLKNVFPPEVAVFEPSEAEISHTQKATLVCLATGFYPDHVELSWWVNGKEVHSGVCTDPQPLKEQPALNDSRYCLSSRLRVSATFWQNPRNHFRCQVQFYGLSENDEWTQDRAKPVTQIVSAEAWGRADCGFTSESYQQGVLSATILYEILLGKATLYAVLVSALVLMAMVKRKDSRGRAKRSGSGATNFSLLKQAGDVEENPGPTSMDWIWRILFLVGAATGAHSFEVQLVESGGGVVQPGRSLRLSCAASGFSFSGYGMHWVRQAPGKGLEWVAYISYDGSNKYYADSVKGRFTISRDNSKNTLYLQMNSLRAEDTAVYYCAKDPAWGLRLGESSSYDFDIWGQGTMVTVSSTRIQNPDPAVYQLRDSKSSDKSVCLFTDFDSQTNVSQSKDSDVYITDKCVLDMRSMDFKSNSAVAWSNKSDFACANAFNNSIIPEDTFFPSPESSCDVKLVEKSFETDTNLNFQNLSVIGFRILLLKVAGFNLLMTLRLWSSRAKRSGSGVKQTLNFDLLKLAGDVESNPGPSRGHMTEYKPTVRLATRDDVPRAVRTLAAAFADYPATRHTVDPDRHIERVTELQELFLTRVGLDIGKVWVADDGAAVAVWTTPESVEAGAVFAEIGPRMAELSGSRLAAQQQMEGLLAPHRPKEPAWFLATVGVSPDHQGKGLGSAVVLPGVEAAERAGVPAFLETSAPRNLPFYERLGFTVTADVEVPEGPRTWCMTRKPGA
With B1, in the test on RAJI cells, the “NFAT-GFP ASSAY: Raji” value was “+/- (refer to approximately 5%, 10%, 20%, 30%, 40% and 50% GFP positive cells)”. The “NFAT-GFP ASSAY: LNCaP” value in the test with LNCaP cells is “+ (refer to approximately 5%, 10%, 20%, 30%, 40% and 50% GFP positive cells)”.

B2: 22055 (protein)
chain: MALPVTALLLPLALLLHAARPQLQLQESGPGLVKPSETLSLTCTVSGDSISSGDYYWGWIRQPPGKGLEWIGHIYYSGVTYYNPSLKSRVTISVDTSRNQFSLKLSSVTAADTAVYYCTREDSSNWRSRGQGTLVTVSSLEGSEVKTDSTDHVKPKETENTKQPSKSCHKPKAIVHTEKVNMMSLTVLGLRMLFAKTVAVNFLLTAKLFFLRAKRSGSGVKQTLNFDLLKLAGDVESNPGPTSMDWIWRILFLVGAATGAHSFEVQLVESGGGVVQPGRSLRLSCAASGFSFSGYGMHWVRQAPGKGLEWVAYISYDGSNKYYADSVKGRFTISRDNSKNTLYLQMNSLRAEDTAVYYCAKDPAWGLRLGESSSYDFDIWGQGTMVTVSSTRGSGRADCGFTSESYQQGVLSATILYEILLGKATLYAVLVSALVLMAMVKRKDSRGRAKRSGSGATNFSLLKQAGDVEENPGPSRGHMTEYKPTVRLATRDDVPRAVRTLAAAFADYPATRHTVDPDRHIERVTELQELFLTRVGLDIGKVWVADDGAAVAVWTTPESVEAGAVFAEIGPRMAELSGSRLAAQQQMEGLLAPHRPKEPAWFLATVGVSPDHQGKGLGSAVVLPGVEAAERAGVPAFLETSAPRNLPFYERLGFTVTADVEVPEGPRTWCMTRKPGA
B2: the “NFAT-GFP ASSAY: Raji” value with RAJI cells is “+/- (refer to approximately 5%, 10%, 20%, 30%, 40% and 50% GFP positive cells)”. In addition, in the test with LNCaP cells, the “NFAT-GFP ASSAY: LNCaP” value was “+ (refer to approximately 5%, 10%, 20%, 30%, 40% and 50% GFP positive cells)”.

B3: 22057 (protein)
chain: MALPVTALLLPLALLLHAARPQLQLQESGPGLVKPSETLSLTCTVSGDSISSGDYYWGWIRQPPGKGLEWIGHIYYSGVTYYNPSLKSRVTISVDTSRNQFSLKLSSVTAADTAVYYCTREDSSNWRSRGQGTLVTVSSLEGSEVKTDSTDHVKPKETENTKQPSKSCHKPKAIVHTEKVNMMSLTVLGLRMLFAKTVAVNFLLTAKLFFLRAKRSGSGVKQTLNFDLLKLAGDVESNPGPTSMDWIWRILFLVGAATGAHSFEVQLVESGGGVVQPGRSLRLSCAASGFSFSGYGMHWVRQAPGKGLEWVAYISYDGSNKYYADSVKGRFTISRDNSKNTLYLQMNSLRAEDTAVYYCAKDPAWGLRLGESSSYDFDIWGQGTMVTVSSTRDKTHTCPPCPAGRADCGFTSESYQQGVLSATILYEILLGKATLYAVLVSALVLMAMVKRKDFRAKRSGSGATNFSLLKQAGDVEENPGPSRGHMTEYKPTVRLATRDDVPRAVRTLAAAFADYPATRHTVDPDRHIERVTELQELFLTRVGLDIGKVWVADDGAAVAVWTTPESVEAGAVFAEIGPRMAELSGSRLAAQQQMEGLLAPHRPKEPAWFLATVGVSPDHQGKGLGSAVVLPGVEAAERAGVPAFLETSAPRNLPFYERLGFTVTADVEVPEGPRTWCMTRKPGA
For the molecule B3, in the test on RAJI cells, the “NFAT-GFP ASSAY: Raji” value was “+/- (refer to approximately 5%, 10%, 20%, 30%, 40% and 50% GFP positive cells)”. Besides, the “NFAT-GFP ASSAY: LNCaP” value in the test on LNCaP cells was “+ (refer to approximately 5%, 10%, 20%, 30%, 40% and 50% GFP positive cells)”.

B4: 22286 (protein)
chain: MALPVTALLLPLALLLHAARPACLFNQEVQIPLTESYCGPCPKNWICYKNNCYQFFDESKNWYESQASCMSQNASLLKVYSKEDQDLLKLVKSAHWMGLVHIPTNGSWQWEDGSILSPNLLTIIEMQKGDCALYASSFKGYIENCSTPNTYICMQRTVLEGQPKANPTVTLFPPSSEELQANKATLVCLISDFYPGAVTVAWKADGSPVKAGVETTKPSKQSNNKYAASSYLSLTPEQWKSHRSYSCQVTHEGSTVEKTVAPTECSPIKTDVITMDPKDNCSKDANDTLLLQLTNTSAYYMYLLLLLKSVVYFAIITCCLLRRTAFCCNGEKSRAKRSGSGATNFSLLKQAGDVEENPGPTSATMDWIWRILFLVGAATGAHSGPQVQLQESGGGLAQAGGSLRLSCAASGRTFSMGWFRQAPGKEREFVAAITYSGGSPYYASSVRGRFTISRDNAKNTVYLQMNSLKPEDTAVYYCAANPTYGSDWNAENWGQGTQVTVSSGSGGGGSGGGGSGGGGSFEQVQLQQPGAELVKPGASVKMSCKASGYAFSSYWINWMKQKPGQGLEWIGQIYPGDGDTNYNGKFKGRATLTADTSSSTAYMQLSSLTSEDSAVYFCARSITTVVGCAMDYWGQGTSVTVSSTRASTKGPSVFPLAPSSKSTSGGTAALGCLVKDYFPEPVTVSWNSGALTSGVHTFPAVLQSSGLYSLSSVVTVPSSSLGTQTYICNVNHKPSNTKVDKRVEPKSCEVKTDSTDHVKPKETENTKQPSKSCHKPKAIVHTEKVNMMSLTVLGLRMLFAKTVAVNFLLTAKLFFLRAKRSGSGVKQTLNFDLLKLAGDVESNPGPSRGHMTEYKPTVRLATRDDVPRAVRTLAAAFADYPATRHTVDPDRHIERVTELQELFLTRVGLDIGKVWVADDGAAVAVWTTPESVEAGAVFAEIGPRMAELSGSRLAAQQQMEGLLAPHRPKEPAWFLATVGVSPDHQGKGLGSAVVLPGVEAAERAGVPAFLETSAPRNLPFYERLGFTVTADVEVPEGPRTWCMTRKPGA
Regarding B4, the “NFAT-GFP ASSAY: Raji” value in the test with RAJI cells is “+ (refer to approximately 5%, 10%, 20%, 30%, 40% and 50% GFP positive cells)”. Moreover, in the test on LNCaP cells, the “NFAT-GFP ASSAY: LNCaP with PSMA-USC76-chVH-G4S-ULBP2-S3” value is “+ (refer to approximately 5%, 10%, 20%, 30%, 40% and 50% GFP positive cells)”.

B5: 22288 (protein)
chain: MALPVTALLLPLALLLHAARPACLFNQEVQIPLTESYCGPCPKNWICYKNNCYQFFDESKNWYESQASCMSQNASLLKVYSKEDQDLLKLVKSAHWMGLVHIPTNGSWQWEDGSILSPNLLTIIEMQKGDCALYASSFKGYIENCSTPNTYICMQRTVLEGQPKANPTVTLFPPSSEELQANKATLVCLISDFYPGAVTVAWKADGSPVKAGVETTKPSKQSNNKYAASSYLSLTPEQWKSHRSYSCQVTHEGSTVEKTVAPTECSPIKTDVITMDPKDNCSKDANDTLLLQLTNTSAYYMYLLLLLKSVVYFAIITCCLLRRTAFCCNGEKSRAKRSGSGATNFSLLKQAGDVEENPGPTSATMDWIWRILFLVGAATGAHSGPQVQLQESGGGLAQAGGSLRLSCAASGRTFSMGWFRQAPGKEREFVAAITYSGGSPYYASSVRGRFTISRDNAKNTVYLQMNSLKPEDTAVYYCAANPTYGSDWNAENWGQGTQVTVSSGSGGGGSGGGGSGGGGSFEDLFNQEVQIPLTESYCGPCPKNWICYKNNCYQFFDESKNWYESQASCMSQNASLLKVYSKEDQDLLKLVKSAHWMGLVHIPTNGSWQWEDGSILSPNLLTIIEMQKGDCALYASSFKGFIENCSTPNTYICMQRTVTRASTKGPSVFPLAPSSKSTSGGTAALGCLVKDYFPEPVTVSWNSGALTSGVHTFPAVLQSSGLYSLSSVVTVPSSSLGTQTYICNVNHKPSNTKVDKRVEPKSCEVKTDSTDHVKPKETENTKQPSKSCHKPKAIVHTEKVNMMSLTVLGLRMLFAKTVAVNFLLTAKLFFLRAKRSGSGVKQTLNFDLLKLAGDVESNPGPSRGHMTEYKPTVRLATRDDVPRAVRTLAAAFADYPATRHTVDPDRHIERVTELQELFLTRVGLDIGKVWVADDGAAVAVWTTPESVEAGAVFAEIGPRMAELSGSRLAAQQQMEGLLAPHRPKEPAWFLATVGVSPDHQGKGLGSAVVLPGVEAAERAGVPAFLETSAPRNLPFYERLGFTVTADVEVPEGPRTWCMTRKPGA
Regarding B5, the “NFAT-GFP ASSAY: Raji” value with RAJI cells is 3+ (refer to approximately 5%, 10%, 20%, 30%, 40% and 50% GFP positive cells). Also, the “NFAT-GFP ASSAY: LNCaP with PSMA-USC76-chVH-G4S-ULBP2-S3” value with LNCaP cells is “+ (refer to approximately 5%, 10%, 20%, 30%, 40% and 50% GFP positive cells)”.
